Laboratory results published in article PMC3491106 (Biochemistry, 2012).

T1: His6-EhFormin1 GBD-FH3 domain tandem (a.a. 69-418) (E. histolytica, UniProt C4M622 69-418)
T1 sequence (looked up): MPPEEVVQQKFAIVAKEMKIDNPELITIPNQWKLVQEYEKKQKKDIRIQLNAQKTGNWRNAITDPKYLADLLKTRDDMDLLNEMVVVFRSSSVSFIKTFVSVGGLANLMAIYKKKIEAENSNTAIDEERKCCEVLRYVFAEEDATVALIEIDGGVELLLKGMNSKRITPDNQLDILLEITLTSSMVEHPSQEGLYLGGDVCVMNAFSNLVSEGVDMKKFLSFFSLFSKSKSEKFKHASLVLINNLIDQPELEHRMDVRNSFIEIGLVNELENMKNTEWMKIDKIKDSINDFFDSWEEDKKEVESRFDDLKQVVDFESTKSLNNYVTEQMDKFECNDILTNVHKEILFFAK


Assays:
[1] = target: His6-EhFormin1 fusion (GBD-FH3 domain tandem, 40-residue linker, FH2-DAD fragment) (E. histolytica); assay: SPR
[2] = target: T1, His6-EhFormin1 GBD-FH3 domain tandem …; assay: SPR

Row | Binder | Kd [1] | Kd [2]
1 | EhRho1·GTPγS (Entamoeba histolytica Rho1, wild type, loaded with GTPγS) (natural protein, E. histolytica) MLAFSDMNTGAGKIENGKKALKIVVVGDGAVGKTCLLLAFSKGEIPTAYVPTVFENFSHVMKYKNEEFILHLWDTAGQEEYDRLRPLSYADSDVVLLCFAVNNRTSFDNISTKWEPEIKHYIDTAKTVLVGLKVDLRKDGSDDVTKQEGDDLCQKLGCVAYIEASSVAKIGLNEVFEKSVDCIFSNKPVPK | 3000 nM | ~3000 nM
2 | EhRho1 Arg83 to Gln mutant (natural protein) MLAFSDMNTGAGKIENGKKALKIVVVGDGAVGKTCLLLAFSKGEIPTAYVPTVFENFSHVMKYKNEEFILHLWDTAGQEEYDQLRPLSYADSDVVLLCFAVNNRTSFDNISTKWEPEIKHYIDTAKTVLVGLKVDLRKDGSDDVTKQEGDDLCQKLGCVAYIEASSVAKIGLNEVFEKSVDCIFSNKPVPK |  | > 100000 nM
